Each sequence was assayed against HLA-B*07:02 (assay: IEDB peptide-MHC binding, purified MHC/competitive/fluorescence; ≥ and ≤ were set here for values at or beyond the usual limits of such assays). Details: source organism: H1N1 subtype.

| Sequence | IC50 |
| --- | --- |
| LPFDKITIM | 4810 nM |
| LPFDRPTIM | 7910 nM |
| LPFEKTTIM | 1190 nM |
| LPFGKTTIM | 881 nM |

Same assay, conditions: source organism: H1N1 subtype Influenza A/Oklahoma/7485/01

| Sequence | IC50 |
| --- | --- |
| LPFDKTTIM | 192 nM |

Same assay, conditions: source organism: H3N2 subtype

| Sequence | IC50 |
| --- | --- |
| LPFDKPTIM | 335 nM |
| LPFDKQTIM | 46500 nM |
| LPFEKSIVM | 494 nM |
| LPFERATII | 1180 nM |
| LPFERSTVM | ≥ 149000 nM |

From the Immune Epitope Database (IEDB)
